Values quoted from earlier work in PMC9898751 (The Journal of Biological Chemistry, 2022).

Key:
H3K27me2 = conditions: H3K4me3 present in cis; ref [35]
H3K9me2 = conditions: H3K4me3 present in cis; ref [35]
peptide substrates = conditions: mass spectrometry– and fluorescence-based demethylase assays on peptide substrates; ref [28]
[1] = phosphorylation by protein kinase A; ref [29]
[2] = tested on: histone peptide bearing H3K4me3 and H3K9me2 in cis; conditions: in contrast to PHF8; ref [28]

| Molecule | activity toward H3K27me2 with H3K4me3 in cis (H3K27me2) | activity on H3K9me2 with H3K4me3 in cis (H3K9me2) | enzymatic activity in vitro (peptide substrates) | activity before phosphorylation [1] | activity on single histone peptide bearing H3K4me3 and H3K9me2 in cis [2] |
| --- | --- | --- | --- | --- | --- |
| KIAA1718: KDM7 family Jumonji demethylase (protein, UniProt Q6ZMT4 1-941, looked up) Lysine-specific demethylase 7A: MAGAAAAVAAGAAAGAAAAAVSVAAPGRASAPPPPPPVYCVCRQPYDVNRFMIECDICKDWFHGSCVGVEEHHAVDIDLYHCPNCAVLHGSSLMKKRRNWHRHDYTEIDDGSKPVQAGTRTFIKELRSRVFPSADEIIIKMHGSQLTQRYLEKHGFDVPIMVPKLDDLGLRLPSPTFSVMDVERYVGGDKVIDVIDVARQADSKMTLHNYVKYFMNPNRPKVLNVISLEFSDTKMSELVEVPDIAKKLSWVENYWPDDSVFPKPFVQKYCLMGVQDSYTDFHIDFGGTSVWYHVLWGEKIFYLIKPTDENLARYESWSSSVTQSEVFFGDKVDKCYKCVVKQGHTLFVPTGWIHAVLTSQDCMAFGGNFLHNLNIGMQLRCYEMEKRLKTPDLFKFPFFEAICWFVAKNLLETLKELREDGFQPQTYLVQGVKALHTALKLWMKKELVSEHAFEIPDNVRPGHLIKELSKVIRAIEEENGKPVKSQGIPIVCPVSRSSNEATSPYHSRRKMRKLRDHNVRTPSNLDILELHTREVLKRLEMCPWEEDILSSKLNGKFNKHLQPSSTVPEWRAKDNDLRLLLTNGRIIKDERQPFADQSLYTADSENEEDKRRTKKAKMKIEESSGVEGVEHEESQKPLNGFFTRVKSELRSRSSGYSDISESEDSGPECTALKSIFTTEESESSGDEKKQEITSNFKEESNVMRNFLQKSQKPSRSEIPIKRECPTSTSTEEEAIQGMLSMAGLHYSTCLQRQIQSTDCSGERNSLQDPSSCHGSNHEVRQLYRYDKPVECGYHVKTEDPDLRTSSWIKQFDTSRFHPQDLSRSQKCIRKEGSSEISQRVQSRNYVDSSGSSLQNGKYMQNSNLTSGACQISNGSLSPERPVGETSFSVPLHPTKRPASNPPPISNQATKGKRPKKGMATAKQRLGKILKLNRNGHARFFV | more selective toward H3K27me2 | inactive on H3K9me2 when H3K4me3 is present in cis |  |  |  |
| PHF2: KDM7 family Jumonji demethylase (protein, UniProt O75151 1-1096, looked up) Lysine-specific demethylase …: MATVPVYCVCRLPYDVTRFMIECDACKDWFHGSCVGVEEEEAPDIDIYHCPNCEKTHGKSTLKKKRTWHKHGPGQAPDVKPVQNGSQLFIKELRSRTFPSAEDVVARVPGSQLTLGYMEEHGFTEPILVPKKDGLGLAVPAPTFYVSDVENYVGPERSVDVTDVTKQKDCKMKLKEFVDYYYSTNRKRVLNVTNLEFSDTRMSSFVEPPDIVKKLSWVENYWPDDALLAKPKVTKYCLICVKDSYTDFHIDSGGASAWYHVLKGEKTFYLIRPASANISLYERWRSASNHSEMFFADQVDKCYKCIVKQGQTLFIPSGWIYATLTPVDCLAFAGHFLHSLSVEMQMRAYEVERRLKLGSLTQFPNFETACWYMGKHLLEAFKGSHKSGKQLPPHLVQGAKILNGAFRSWTKKQALAEHEDELPEHFKPSQLIKDLAKEIRLSENASKAVRPEVNTVASSDEVCDGDREKEEPPSPIEATPPQSLLEKVSKKKTPKTVKMPKPSKIPKPPKPPKPPRPPKTLKLKDGGKKKGKKSRESASPTIPNLDLLEAHTKEALTKMEPPKKGKATKSVLSVPNKDVVHMQNDVERLEIREQTKSKSEAKWKYKNSKPDSLLKMEEEQKLEKSPLAGNKDNKFSFSFSNKKLLGSKALRPPTSPGVFGALQNFKEDKPKPVRDEYEYVSDDGELKIDEFPIRRKKNAPKRDLSFLLDKKAVLPTPVTKPKLDSAAYKSDDSSDEGSLHIDTDTKPGRNARVKKESGSSAAGILDLLQASEEVGALEYNPSSQPPASPSTQEAIQGMLSMANLQASDSCLQTTWGAGQAKGSSLAAHGARKNGGGSGKSAGKRLLKRAAKNSVDLDDYEEEQDHLDACFKDSDYVYPSLESDEDNPIFKSRSKKRKGSDDAPYSPTARVGPSVPRQDRPVREGTRVASIETGLAAAAAKLSQQEEQKSKKKKSAKRKLTPNTTSPSTSTSISAGTTSTSTTPASTTPASTTPASTSTASSQASQEGSSPEPPPESHSSSLADHEYTAAGTFTGAQAGRTSQPMAPGVFLTQRRPSASSPNNNTAAKGKRTKKGMATAKQRLGKILKIHRNGKLLL |  |  | enzymatically inactive in vitro | remains inactive until it is phosphorylated by protein kinase A | cannot act on a single histone peptide bearing H3K4me3 and H3K9me2 in cis |
